From publication doi:10.1101/2023.07.20.549453 (bioRxiv, 2023)

T1: Human Numb full-length (human, UniProt P49757 1-651)
T1 sequence (looked up): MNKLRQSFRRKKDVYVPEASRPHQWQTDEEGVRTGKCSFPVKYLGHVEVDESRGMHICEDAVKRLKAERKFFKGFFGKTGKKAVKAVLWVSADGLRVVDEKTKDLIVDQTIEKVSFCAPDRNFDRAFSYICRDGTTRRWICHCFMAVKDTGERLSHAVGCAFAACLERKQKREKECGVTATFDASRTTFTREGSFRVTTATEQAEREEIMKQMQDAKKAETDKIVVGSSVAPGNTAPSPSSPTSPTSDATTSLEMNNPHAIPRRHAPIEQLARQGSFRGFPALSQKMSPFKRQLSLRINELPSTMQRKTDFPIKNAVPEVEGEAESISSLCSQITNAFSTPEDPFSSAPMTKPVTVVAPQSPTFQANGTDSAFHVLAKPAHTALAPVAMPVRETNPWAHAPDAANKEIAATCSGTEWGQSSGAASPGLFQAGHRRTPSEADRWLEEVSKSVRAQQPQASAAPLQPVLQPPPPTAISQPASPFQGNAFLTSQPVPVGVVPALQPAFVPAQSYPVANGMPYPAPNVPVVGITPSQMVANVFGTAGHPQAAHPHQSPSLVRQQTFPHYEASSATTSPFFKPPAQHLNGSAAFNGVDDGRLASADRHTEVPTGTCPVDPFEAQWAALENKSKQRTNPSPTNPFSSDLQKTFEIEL


How the values were obtained:
Human Numb full-length = biological target: T1, Human Numb full-length; experiment: SPR
[1] = biological target: Human Mdm2 (residues 119-438) (human, UniProt Q00987-11 119-438); experiment: SPR
Chain of Human Mdm2 (residues 119-438) (Q00987 113-432): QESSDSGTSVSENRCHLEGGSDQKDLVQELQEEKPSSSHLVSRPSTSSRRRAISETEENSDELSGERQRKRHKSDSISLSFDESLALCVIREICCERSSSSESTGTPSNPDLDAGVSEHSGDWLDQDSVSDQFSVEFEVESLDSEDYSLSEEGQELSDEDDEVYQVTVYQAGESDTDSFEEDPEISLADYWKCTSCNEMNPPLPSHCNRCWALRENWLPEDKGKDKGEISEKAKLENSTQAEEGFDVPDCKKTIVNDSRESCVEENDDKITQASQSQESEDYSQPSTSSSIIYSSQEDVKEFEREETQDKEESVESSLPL

Kd (Human Numb full-length) | Kd [1] | Binder
~14.3 nM |  | Human Notch1 intracellular domain (NICD) (residues 2280-2550) (domain or fragment, UniProt P46531 2280-2550, looked up) SGTSTVLGSSSGGALNFTVGGSTSLNGQCEWLSRLQSGMVPNQYNPLRGSVAPGPLSTQAPSLQHGMVGPLHSSLAASALSQMMSYQGLPSTRLATQPHLVQTQQVQPQNLQMQQQNLQPANIQQQQSLQPPPPPPQPHLGVSSAASGHLGRSFLSGEPSQADVQPLGPSSLAVHTILPQESPALPTSLPSSLVPPVTAAQFLTPPSQHSYSSPVDNTPSHQLQVPEHPFLTPSPESPDQWSSSSPHSNVSDWSEGVSSPPTSMQSQIARI
~2.4 nM | ~3.5 nM | Human Dlk2 extracellular domain (Dlk2EC, residues 1-306) (domain or fragment, UniProt Q6UY11 27-306, looked up) DDCSSHCDLAHGCCAPDGSCRCDPGWEGLHCERCVRMPGCQHGTCHQPWQCICHSGWAGKFCDKDEHICTTQSPCQNGGQCMYDGGGEYHCVCLPGFHGRDCERKAGPCEQAGSPCRNGGQCQDDQGFALNFTCRCLVGFVGARCEVNVDDCLMRPCANGATCLDGINRFSCLCPEGFAGRFCTINLDDCASRPCQRGARCRDRVHDFDCLCPSGYGGKTCELVLPVPDPPTTVDTPLGPTSAVVVPATGPAPHSAGAGLLRISVKEVVRRQEAGLGEPS
